Laboratory results published in patent publication US20240252670A1 (TSINGHUA UNIVERSITY, published 2024).

Molecular target: T1, PD-L1 on the surface of murine cells (MC38, B16, wild-type DC 2.4) (murine, UniProt Q9EP73 19-290)
T1 construct: whole, on cells; also called PD-L1 antigen; Cd274 gene product
Experiment: FACS on MC38 cells, FITC-labeled goat anti-human secondary antibody
Description: A. The histograms of different colors represent, from top to bottom, the fluorescence signals measured for the negative control (NC) group, the secondary antibody group, the anti-PD-L1 antibody group, the anti-PD-L1 THIOMAB group, and the ADC HE-S2 group, respectively. B. Mean fluorescence intensity (MFI) measured after treatment with different antibody-based drugs on MC38. NC group: the negative control only added with the isotype antibody, with no secondary antibody added for staining; secondary antibody group: the control group added with the isotype antibody and stained with fluorescent secondary antibody. Student's t test was used to compare significant differences between the groups, and p<0.0001 is represented by ****.
With PD-L1 positive MC38 as a platform, the inventors verified whether ADC HE-S2 and the gene-modified anti-PD-L1 THIOMAB retained the original antibody-antigen binding capacity by using a fluorescence activated cell sorting (FACS) technique. In the experiment, ADC HE-S2, anti-PD-L1 antibody (i.e., avelumab as described in Example 2) and anti-PD-L1 THIOMAB (i.e., mutant antibody prepared in Example 2) serving as primary antibodies were incubated with MC38 cells, such that the antibodies could be sufficiently contacted and bind to PD-L1 on the cell surfaces. After washing with PBS, the cells were treated with an FITC-labeled goat anti-human secondary antibody, and incubated in the dark for 30 min to allow the secondary antibody to bind fully to the primary antibodies. Simultaneously, two groups of negative controls were set, wherein one group was marked as a negative control (NC), only isotype control IgG was added to treat the cells, no staining was carried out, and the fluorescent background of the cells was represented; the other group was marked as a secondary antibody, and after addition of isotype control IgG, the secondary antibody was stained with FITC-labeled secondary antibody along with other experimental groups to characterize false positive fluorescence signals generated by non-specific binding of secondary antibodies to the cells. The stained MC38 cells were analyzed on a BD FACSAria™ III flow cytometer, and the strength of FITC fluorescence signals on MC38 cells treated with different antibody-based drugs was detected and compared, so as to characterize the affinity of ADC, THIOMAB and antibodies to PD-L1.

T1 sequence (Q9EP73 19-290): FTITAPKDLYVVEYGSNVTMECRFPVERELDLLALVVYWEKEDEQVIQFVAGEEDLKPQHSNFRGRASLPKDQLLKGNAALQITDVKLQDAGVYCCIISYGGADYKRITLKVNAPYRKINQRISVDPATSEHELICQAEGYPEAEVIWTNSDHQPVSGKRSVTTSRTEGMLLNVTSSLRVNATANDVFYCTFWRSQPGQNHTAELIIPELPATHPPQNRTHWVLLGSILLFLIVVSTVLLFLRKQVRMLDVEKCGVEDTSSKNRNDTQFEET

MFI | shift rate of the FITC positive signal relative to the NC group [%] | Binder
449 | 36.6 | anti-PD-L1 THIOMAB (avelumab with light chain V205C) (antibody, human IgG1, lambda, engineered cysteine (V205C; Cys 226 of SEQ ID NO: 9) generally capped with a free cysteine in the intact THIOMAB as expressed, also called αPD-L1 THIOMAB LC-V205C) heavy: not shown light: QSALTQPASVSGSPGQSITISCTGTSSDVGGYNYVSWYQQHPGKAPKLMIYDVSNRPSGVSNRFSGSKSGNTASLTISGLQAEDEADYYCSSYTSSSTRVFGTGTKVTVLGQPKANPTVTLFPPSSEELQANKATLVCLISDFYPGAVTVAWKADGSPVKAGVETTKPSKQSNNKYAASSYLSLTPEQWKSHRSYSCQVTHEGSTCEKTVAPTECS
445 | 35.7 | anti-PD-L1 antibody avelumab (antibody, human IgG1, lambda, also called MSB0010718C; Bavencio) heavy: not shown light: QSALTQPASVSGSPGQSITISCTGTSSDVGGYNYVSWYQQHPGKAPKLMIYDVSNRPSGVSNRFSGSKSGNTASLTISGLQAEDEADYYCSSYTSSSTRVFGTGTKVTVLGQPKANPTVTLFPPSSEELQANKATLVCLISDFYPGAVTVAWKADGSPVKAGVETTKPSKQSNNKYAASSYLSLTPEQWKSHRSYSCQVTHEGSTVEKTVAPTECS
